Positions count from the first letter of the chain named. Names may count otherwise. “And” between values parts separate entries of the source, which are not always exact repeats. Identical values can stand only once. “Also recorded” adds a separate entry of the source. Ends that are not written are not given here.

One data set deals with T1, EH-domain of EHD2 (Mus musculus, UniProt Q8BH64).
T1 sequence (Q8BH64 449-537 limits assumed): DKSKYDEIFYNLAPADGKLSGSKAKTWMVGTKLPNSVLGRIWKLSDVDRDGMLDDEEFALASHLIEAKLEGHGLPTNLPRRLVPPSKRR
The data set is described as follows: ITC peptide binding to the EH-domain of EHD2. To be noted: ITC at 10° C.; for affinity of xPF peptide to the EH-domain of EHD2 by ITC: 100 mM HEPES (pH 7.5), 50 mM NaCl, 200 μM CaCl2. The text has this: EH-domains are low affinity protein-protein interactors normally found in endocytic multi-subunit assemblies. A likely purpose of the EH-domain is in recruitment of the protein to sites of action. […] An alternative explanation for the function of the EH-domain in the oligomer can be proposed based on the presence of two conserved PF motifs (NPF and IPF) in a disordered surface loop at the side of the G-domain between β-sheet 2A and 2B. In our proposed oligomer, the EH-domains from one dimer are close to the side-site NPF motif of the adjacent dimer (FIG. 4c) and thus after oligomerisation on membranes they may switch position from the top site position in the dimer to the side site in the opposing dimer. […] A dominant negative mutant in C. elegans Rme1 is found in the linker between the EH-domain and the helical domain^3 pointing to the importance of this flexible linker.
Background: Isothermal titration calorimetry measures the heat released or taken up as one component is titrated into another.

For data set [1], the target named is T2, EHD2 (Mus musculus, UniProt Q8BH64).
T2 construct: Mouse EHD2 full-length protein and all mutants were expressed as N-terminal His-fusions followed by a PreScission cleavage site; His (N, cleaved yes); made in house; host or cells: Escherichia coli BL21 DE3 Rosetta
T2 sequence (Q8BH64 1-543): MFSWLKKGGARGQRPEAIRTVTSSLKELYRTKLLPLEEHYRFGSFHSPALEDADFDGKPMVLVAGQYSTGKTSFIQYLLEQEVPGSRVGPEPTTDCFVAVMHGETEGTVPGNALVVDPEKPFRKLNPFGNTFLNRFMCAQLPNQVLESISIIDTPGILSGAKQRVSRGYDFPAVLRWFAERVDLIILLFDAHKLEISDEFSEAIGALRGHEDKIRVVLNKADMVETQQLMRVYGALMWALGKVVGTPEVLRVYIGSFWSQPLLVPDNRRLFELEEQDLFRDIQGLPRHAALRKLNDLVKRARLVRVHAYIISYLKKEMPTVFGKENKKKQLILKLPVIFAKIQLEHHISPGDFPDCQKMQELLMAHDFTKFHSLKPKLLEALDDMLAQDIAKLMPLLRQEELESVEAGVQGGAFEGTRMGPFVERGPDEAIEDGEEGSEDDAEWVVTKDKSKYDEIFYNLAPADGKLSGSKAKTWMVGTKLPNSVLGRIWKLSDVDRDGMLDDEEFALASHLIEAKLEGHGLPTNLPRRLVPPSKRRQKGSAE
The data set is described as follows: ITC nucleotide binding to EHD2. To be noted: ITC at 10° C. On the procedure:
(§1) Amino acid numbering corresponds to mouse EHD2. b, EHD2 binds to adenine nucleotides, as determined by ITC. For clarity, ΔΔH=ΔHn−ΔH1 is plotted. […] Images were acquired close to the basal cell surface. f, Nucleotide hydrolysis was measured by HPLC in the absence (empty symbols) or presence of Folch liposomes (filled symbols). Data represent mean and standard deviation for two (intrinisic reactions) or three (stimulated reactions) independent experiments.
(§2) ITC measurements were performed at 10° C. in 20 mM HEPES (pH 7.5), 300 mM NaCl, 2 mM MgCl2. Liposome binding assays were performed as described previously (www.endocytosis.org). Multiple turnover ATPase assays were performed in 20 mM HEPES (pH 7.5), 135 mM NaCl, 15 mM KCl, 1 mM MgCl2 at 30° C. with 10 μM EHD2 (or mutants) as enzyme and 100 μM ATP as substrate, in the absence or presence of 1 mg/ml Folch liposomes (Sigma-Aldrich).
(§3) Mouse full-length EHD2 was expressed in bacteria and purified to homogeneity (FIG. 5). The purified protein was nucleotide-free as judged by HPLC analysis. […] It was previously reported that EHDs—despite having a predicted G-domain—bind to adenine nucleotides^15. […] We still refer to this domain as a G-domain because the sequence and fold (see below) are clearly similar to other G-domains. […] Using synthetic liposomes containing various different phosphatidyl-inositols (PI) (FIG. 1c) we observed best binding to liposomes containing PI(4,5)bisphosphate (PIP2).

The target in data set [2] is T2, EHD2. The data set is described as follows: Multiple turnover ATPase assay (nucleotide hydrolysis by HPLC) with or without Folch liposomes. The data set is classed as biochemical. On the procedure:
as §1, §2
Reactions were started by the addition of the protein to the final reaction mix and nucleotide hydrolysis was followed using standard HPLC measurement^27. Initial rates were determined by applying a linear fit to data points up to 40% nucleotide hydrolysis. For electron microscopic studies, 2.5 μM EHD2 in 20 mM HEPES (pH 7.5), 150 mM NaCl, 1 mM MgCl2 was incubated for 15 min at 25° C. in the presence of 1 mM nucleotide and 0.05 mg/ml (final concentration) of the indicated liposomes. Samples were spotted on carbon-coated copper grids (Canemco and Marivac) and negatively stained with 2% uranyl acetate.
We next monitored the effect of membrane-binding on the ATPase activity of. EHD2 under multiple-turnover conditions (10-fold excess of ATP over EHD2), in the presence and absence of Folch liposoines (FIG. 1f). The intrinsic/background ATPase activity is extremely slow (kobs=0.7 h^−1) but is stimulated 8-fold in the presence of Folch or PS liposomes (kobs=5.6 h^−1).

Data set [3] can be described thus: Liposome co-sedimentation (membrane binding) assay. To be noted: Folch / PS liposomes. On the procedure:
as §1
(§4) Nucleotide hydrolysis was measured as described in FIG. 1f. In vitro tubulation activity of PS liposomes was analysed as described in FIG. 1d. f, EGFP-tagged mutants were over-expressed in HeLa cells. […] For each construct, three independent experiments with ≈50 cells/experiments were analysed.
as §2, §3

The subject of another data set is HeLa cells. The data set is described as follows: Over-expression of EGFP-tagged EHD2 and mutants in HeLa cells (confocal / live imaging). The data set is classed as cell-based. To be noted: 24 h after transfection, fixed. The method, then:
as §1, §4
Ultracentrifugation. Sedimentation velocity experiments were performed in a Beckman Optima XLA ultracentrifuge, using an An-60Ti rotor. Centrifugation was at 50,000 rev×min and 5° C. at an EHD2 concentration of 15 μM, with scans as fast as possible (˜1.5 min intervals). The data were analysed using DCDT+ v.2^44,45, with the partial specific volume for the protein (from the amino acid composition) and solvent density and viscosity calculated using Sednterp^46. Selected scans (at equal, ˜15 min intervals), and of g(s20,w) (the amount of material sedimenting between s20,w and (s20,w+δs)) and also the residuals for fitting the data with DCDT+, were plotted with the program profit v.5.6.7 (Quantum soft, Switzerland). Cell biology. N-terminal EGFP-tagged EHD2 and all mutants were over-expressed in HeLa cells from the pEGFP-C3 vector (Clontech). HeLa cells were grown as per ECACC guidelines with 10% fetal bovine serum and transfected using Genejuice (Novagen) for transient protein expression. 24 h after transfection, cells were fixed for 10 min at 37° C. in 3% paraformaldehyde and mounted. All confocal images were taken sequentially using a BioRad Radiance system and LaserSharp software (Biorad). For real-time microscopy, transfected cells on glass-bottom Petri dishes (WillCo Wells BV, Amsterdam) were washed with 25 mM HEPES (pH 7.5), 125 mM NaCl, 5 mM KCl, 10 mM D-glucose, 1 mM MgCl2, 2 mM CaCl), and epifluorescence images were taken using an Olympus IX70 microscope (Southhall, UK) and Argon laser (Melles Griot, Carlsbad, Calif.) with a Princeton instruments (Trenton, N.J.) cooled I-PentaMAX camera with MetaMorph software (Universal imaging).
EHD2 wild-type was over-expressed in HeLa cells for 24 h and imaged by EPI-fluorescence for approximately 30 min.
EHD2 T94A was over-expressed in HeLa cells for 24 h and imaged by EPI-fluorescence for approximately 30 min. […] EHD2 I157Q was over-expressed in HeLa cells for 24 h and imaged by EPI-fluorescence for approximately 30 min.

In the case of “RMGPFVER [peptide from EHD2 linker containing GPF motif]”, the “affinity of xPF peptide to the EH-domain of EHD2 by ITC” value was “did not (show detectable binding” on EH-domain of EHD2 and “not the top site GPF peptide, bound with a measurable affinity” at EH-domain of EHD2 (listed as top site GPF peptide).

For the molecule `Nc1ncnc2c1ncn2[C@@H]1O[C@H](COP(=O)(O)OP(=O)(O)O)[C@@H](O)[C@H]1O` [ADP], at EHD2 [1], the “n (fitted ITC value), nucleotide binding to EHD2” value came to 0.9. The Kd at EHD2 [1] (20 mM HEPES (pH 7.5), 300 mM NaCl, 2 mM MgCl2, read-out: affinity to EHD2 determined by ITC) was 50 µM and ~50 µM.

With “PEKPFRKL [peptide from EHD2 containing KPF motif]”, on EH-domain of EHD2, the “affinity of xPF peptide to the EH-domain of EHD2 by ITC” value is recorded as “did not (show detectable binding”.

Regarding `Nc1nc2c(ncn2[C@@H]2O[C@H](COP(=O)(O)OP(=O)(O)OP(O)(O)=S)[C@@H](O)[C@H]2O)c(=O)[nH]1` [GTP-γ-S], the “affinity to EHD2 determined by ITC” value at EHD2 [1] (20 mM HEPES (pH 7.5), 300 mM NaCl, 2 mM MgCl2) is “No binding signal was observed”.

KLNPFGNT [KLNPFGNT]: on EH-domain of EHD2, the “n (fitted ITC value), peptide binding to EH-domain” value is listed as 1.33.

B1: EHD2 R167E (protein)
chain: T2 sequence (Q8BH64 1-543) with R167E
In the case of B1, the “intrinsic/basal ATPase activity (in words)” value with EHD2 [2] (absence of membranes) is “increased basal ATPase activity”. The “membrane-stimulated ATPase activity (in words)” value in the data set with EHD2 [2] (presence of Folch liposomes) is given as “not further stimulated by Folch liposomes”. In the data set with Q8BH64, the “assembly-stimulated ATP hydrolysis” value is given as “all mutants showed reduced or completely abolished assembly-stimulated ATP hydrolysis”; the “nucleotide hydrolysis (basal and Folch-stimulated ATPase)” value is listed as “mutant R167E (in Switch II) showed an increased basal ATPase activity which was not further stimulated by Folch liposomes”.

B2: F322A: EHD2 membrane-binding site mutant (protein, UniProt Q8BH64 1-543, looked up, variant F322A)
EH domain-containing protein 2: T2 sequence (Q8BH64 1-543) with F322A
For B2, in the data set with EHD2 [2] (10 μM protein, 100 μM ATP, 30° C., presence of 1 mg/ml Folch (or PS) liposomes), the “kobs stimulated ATPase reaction” value was 3.0 h⁻¹. In the data set with EHD2 [2] (presence of Folch liposomes), the “decrease in the stimulated ATPase rate versus wt” value is 40% and the “membrane-stimulated ATPase activity (in words)” value is listed as “reduced ATPase stimulation”. The “binding to liposomes (co-sedimentation)” value in data set [3] is listed as “bound less to liposomes”. Moreover, in the data set on HeLa cells, the “distribution of EGFP-tagged protein over-expressed in HeLa cells” value is given as “completely cytoplasmic distribution”.

B3: T72A: EHD2 mutant in the phosphate binding (P-)loop, nucleotide-free (protein, UniProt Q8BH64 1-543, looked up, variant T72A)
EH domain-containing protein 2: T2 sequence (Q8BH64 1-543) with T72A
On to B3, for which the “membrane-stimulated ATPase activity (in words)” value in the data set with EHD2 [2] (presence of Folch liposomes) is reported as “did not show stimulation of ATP hydrolysis; also recorded: did not show membrane-stimulated ATPase activity”. The “binding to liposomes (co-sedimentation)” value in data set [3] is “bound to Folch liposomes”. For the same molecule, the “distribution of EGFP-tagged protein over-expressed in HeLa cells” value in the data set on HeLa cells is listed as “cytoplasmic distribution”.

B4: EHD2 D198R (protein)
chain: T2 sequence (Q8BH64 1-543) with D198R
In the case of B4, the “assembly-stimulated ATP hydrolysis” value in the data set with Q8BH64 is “all mutants showed reduced or completely abolished assembly-stimulated ATP hydrolysis”.

(Values after patent US20120214173A1, “Methods of Identifying Modulators of an Ehd Polypeptide” (priority 2007, published 2012).)
